Reference: the DeepSol protein solubility set

test: soluble on expression in E. coli; label from the status in PepcDB or PDB records

Q: With “MSTKADMAIAFHDKGYNCAQAVACSFCQEFGVAEEEMFRIAEGFGLGMGMMEVCGALSGMMMIIGLENSVGEPEKGRLTKGDTYRKVKEYVKKFQEQNGSYLCRELKGVETGKVLRSCPDCIRDAVALTEEYLAAQKQN” as the sequence, how does the “soluble on expression in E. coli” value read?
A: not soluble

Q: With “MSTKVKKTTQLKQMLNSKDLEFIMEAHNGLSARIVQEAGFKGIWGSGLSVSAQLGVRDSNEASWTQVVEVLEFMSDASDVPILLDADTGYGNFNNARRLVRKLEDRGVAGACLEDKLFPKTNSLHDGRAQPLADIEEFALKIKACKDSQTDPDFCIVARVEAFIAGWGLDEALKRAEAYRNAGADAILMHSKKADPSDIEAFMKAWNNQGPVVIVPTKYYKTPTDHFRDMGVSMVIWANHNLRASVSAIQQTTKQIYDDQSLVNVEDKIVSVKEIFRLQRDDELVQAEDKYLPKN” as the sequence, how does the “soluble on expression in E. coli” value read?
A: soluble

Q: For “MSTLGHQYDNSLVSNAFGFLRLPMNFQPYDSDADWVITGVPFDMATSGRAGGRHGPAAIRQVSTNLAWEHNRFPWNFDMRERLNVVDCGDLVYAFGDAREMSEKLQAHAEKLLAAGKRMLSFGGDHFVTLPLLRAHAKHFGKMALVHFDAHTDTYANGCEFDHGTMFYTAPKEGLIDPNHSVQIGIRTEFDKDNGFTVLDACQVNDRSVDDVIAQVKQIVGDMPVYLTFDIDCLDPAFAPGTGTPVIGGLTSDRAIKLVRGLKDLNIVGMDVVEVAPAYDQSEITALAAATLALEMLYIQAAKKGE”, which “soluble on expression in E. coli” value is on record?
A: soluble

Q: Which “soluble on expression in E. coli” value does the source give for “MSTNITFHASALTRSERTELRNQRGLTIWLTGLSASGKSTLAVELEHQLVRDRRVHAYRLDGDNIRFGLNKDLGFSEADRNENIRRIAEVAKLFADSNSIAITSFISPYRKDRDTARQLHEVATPGEETGLPFVEVYVDVPVEVAEQRDPKGLYKKAREGVIKEFTGISAPYEAPANPEVHVKNYELPVQDAVKQIIDYLDTKGYLPAKKE” here?
A: soluble

Q: Which “soluble on expression in E. coli” value does the source give for “MSTPDDPVIHSPPSIGAAPGMNGYHGSGVKLEESSGACGSPDDGLLDSSEESRRRQKTCRVCGDHATGYNFNVITCESCKAFFRRNALRPKEFKCPYSEDCEINSVSRRFCQKCRLRKCFTVGMKKEWILNEEQLRRRKNSRLNNTGTCNKRSQPGNQQSPQGPNQQPHLSPHHPGVAIYPPQPQRPLTINPMDNQMMHHMQANRPNAMPQLISPPGAQPYPLTSPVGSSASDSPPNRSLTMMHNGEKSPDGYDPNIMAHRAPPPSFNNRPKMDSGQVVLSTEEYKQLLSRIPGAQVPGLMNEEEPINKRAAYNCNGHPMPAETTPPYSAPMSDMSLSRHNSTSSGTEKNHMTHSTVSAIPGNSAQNHFDIASFGMGIVTATGGGDAAEEMYKRMNMFYENCIQSALDSPENQEPKPQEAMIPKEEYMTPTHGFQYQSDPYQVPPAERNINYQLNAAELKALDAVREAFYGMDDPMEQGRQMQSFLKANKTPADIMNIMDVTMRRFVKVAKGVPAFREVSQEGKFSLLKGGMIEMLTVRGVTRYDASTNSFKTPTIKGQNVSVNVDDMFAKLNANAQAQKAKCLEFFGFFDEEIKKNELAVYLVMLAVLFSVRSDPPMNENDVRIVTERHNHFMSLLNRYLESLFGEQARRIFERIPKALGLLNEIARNAGMLFMGTVRSGEAEELPGEFFKIK” here?
A: not soluble

Q: Which “soluble on expression in E. coli” value does the source give for “MSTRSARIVVVSSRAAAGVYTDDCGPIIAGWLEQHGFSSVQPQVVADGNPVGEALHDAVNAGVDVIITSGGTGISPTDTTPEHTVAVLDYVIPGLADAIRRSGLPKVPTSVLSRGVCGVAGRTLIINLPGSPGGVRDGLGVLADVLDHALEQIAGGDHPR” here?
A: soluble

Q: With “MSTRWRYYNSKRGNGFRGRGRGRGRGTSLTAVALPRDDNFHKGAQDGAYFKDMPMDPEQFRDETVLSLSFAQGMLGAAYYEQSSQLLKIMNDISEDLEFRFLKRLIDDVKPTLIIANRSQDLEFIKFLTTRYDPQEKIYEDGTTEEGTSEDTVPTWDSSLAYSTDETTAEKEEKEEDEDDDDEGLPAKLNKLPNNFFRMSRAIERLKAMAGSHDSSMTEEDKYIIIKMRFDIEAVNMIRSFGALLLFLDETRMGVTDDPLSVTSPIKSIKTFTLGNLVEIDFNTIQALDILPKETENKKTFGQGRSLYQLMDKCRSTVGKKCLRKWFRNPTTDRDDLVSRQKCVHYFKQDWNAEVTAKLSSILGRVKALNSVFQKFQSGTAQLIHWECFVSTVNALVEILNIIRQTPISKEFPVESDLLREVSEIAVIAGSIINFAESKIQGRVTVMNGIDEELDEIRDTYENMPMVLTAIAKQEEARLGLPPYSNVACVYIPLVGFVLSVPRDYGVESQPDMTLLYSTHEDLRVRNATTSRLDDEFGDILMRLIDSQTAIILTLKTRVMKKKRSIIKLLSIASRIDVLISFGLIAAQNGWNCPALVDEPVIEAVELYHPISVLVVKKSFVPNQVSSGRDGIKASIITGPNACGKSVYMKSIGIMVFLSHIGSFVPARHAKIGIVDRIVTRMFTVDSVLDGMSTFAKDVEQVALALRKATGNSLVIIDEFGKGTMTEVGLSLLASVMTYWMNRGADRCPHIFLSSHFHALPNYIPLETNIATFLTFTVLREAGGKIKYLFRMTPGLVDCSFALSVAKEEGIPPPVIGRACRIYKALKAGTLLKEIKAEVSNDNEKQLVEDMDVVLADEDGFMAAVESFVKRKKTSFCESSMRNVSEEIEKERSEASTPASKSRSTITARSNSVLSSRSMASVDQLSVLDALLPKKKKKKVTGSSMESSMSPDPFQEEDEGTEGEEDQISAPVSRPTLPSVQKYASEEEKQQSINSRHSFSTRTAIHIPTPIQMGEAGGVKRPRSTSTSSPGPSASKSVRTEVFKKTPNVKESQVLETPKQLSISSFLEPKFPSSEKDVISRVSERYLQSDPFKTPISDRRSQQSSRHSTPKNRSMNQSLIQSARDTPHETIRSSNEVNPEFFNIFNFPDDSILKSQDTYDPNVTPRSSSRRELRPDVSHSQNSQFGEVFSELGTQFSIFNSQQSFPGNSMGTTNPDCSIFDDFFANSQDGEKKIDSTKTSMPIVNSDNFIFKTPEPRSSEKQRSLLKNKGQASNSSISPSSLILGQLAFGDVDQTPRPRGDNPIEFQYDVVDDDDPIFEEKNCSAPVFEFLKSNDDEEDDEFLKSFLETEGSLHIDTSADETIDRSKRS” as the sequence, how does the “soluble on expression in E. coli” value read?
A: not soluble

Q: With “MSTSEKRKGMQTDMPELQAMISQRIQEQNYREVLKGVTAFPWCTDDPCVFRTAAGNLWIAVGHVNRKSEVPKFSYKNFLCAYLLGNAEDGVAAYLDLQAAAWKGVELVMFSSHADGLSALYGDGRANDRDLLYRFFGRNYVFAVGFRKKEEKEQASAGDKIFIASVDAVGFGEIDKDGKLAVINKIMSYEQFFDDEDLKPMWGALAVKLFILKCNGYRESAKDRKALDILLHDMMKLCKSMELTAGLDDQKRKHPESAGINPQMALLKNEAMVKVHNGMDEKVKSNLPLLEWAVNHLPAKLLQEFGTFVESVPQIKEPTAYDNLMSLESVLKEMDRLFKKAAEEENLSLTKNSMTDG” as the sequence, how does the “soluble on expression in E. coli” value read?
A: not soluble

Q: With “MSTVGLFHFPTPLTRICPAPWGLRLWEKLTLLSPGIAVTPVQMAGKKDYPALLSLDENELEEQFVKGHGPGGQATNKTSNCVVLKHIPSGIVVKCHQTRSVDQNRKLARKILQEKVDVFYNGENSPVHKEKREAAKKKQERKKRAKETLEKKKLLKELWESSKKVH” as the sequence, how does the “soluble on expression in E. coli” value read?
A: soluble

Q: Which “soluble on expression in E. coli” value does the source give for “MSVAGLKKQFHKASQLFSEKISGAEGTKLDEEFLNMEKKIDITSKAVAEILSKATEYLQPNPAYRAKLGMLNTVSKLRGQVKATGYPQTEGLLGDCMLKYGKELGEDSAFGNSLVDVGEALKLMAEVKDSLDINVKQTFIDPLQLLQDKDLKEIGHHLRKLEGRRLDYDYKKRRVGKIPEEEIRQAVEKFEESKELAERSMFNFLENDVEQVSQLAVFVEAALDYHRQSTEILQELQSKLELRISLASKVPKREFMPKPVNMSSTDANGVGPSSSSKTPGTDTPSDQPCCRGLYDFEPENEGELGFKEGDIITLTNQIDENWYEGMLRGESGFFPINYVEVIVPLPP” here?
A: soluble

Q: For “MSVARHTQILPSVLDRLLDDEPDQSHIESISLFELPQFKRALARDLEALLNTRLMPLDELMESFPQARDSLLTFGIPDLSGISLLNPDDRELLREQLRRSIELHEPRLSRVRVNLDAPREMERHLRFRVDAVLKVHPHRPPVTFDATLQLSSNVYKVQG”, which “soluble on expression in E. coli” value is on record?
A: not soluble

Q: For “MSVASLFEKFFLSASFIDKAPRTQKDYLGYKKDLLIAFGKMDINKVEPKHVRMFMDKKAVKSGISQANRHKSALQSIFSWAYERGKIKVNPCVGVKKFTEKLEHHHHHH”, which “soluble on expression in E. coli” value is on record?
A: not soluble
